{
  "source": "patent US11767515B2",
  "about": "“Colonic organoids and methods of making and using same” (Children's Hospital Medical Center, priority 2016, dated 2023)",
  "molecules": {"B1": {"name": "NOGGIN: BMP inhibitor NOGGIN (R&D), 100 ng/ml, used to generate proximal HIOs (protein, UniProt Q13253 28-232, looked up)", "Noggin": "QHYLHIRPAPSDNLPLVDLIEHPDPIFDPKEKDLNETLLRSLLGGHYDPGFMATSPPEDRPGGGGGAAGGAEDLAELDQLLRQRPSGAMPSEIKGLEFSEGLAQGKKQRLSKKLRRKLQMWLWSQTFCPVLYAWNDLGSRFWPRYVKVGSCFSKRSCSVPEGMVCKPSKSVHLTVLRWRCQRRGGQRCGWIPIQYPIISECKCSC"}},
  "key": {"BMP signaling [1]": {"tested_on": "BMP signaling", "assay": "BMP inhibition in Xenopus tropicalis embryos", "assay_type": "in vivo", "conditions": "DMH-1 20 pM vs DMSO", "method": "BMP inhibition in frog and mouse embryos. Xenopus tropicalis embryo culture and small molecule treatments were performed as previously described (Rankin et al., 2012; Rankin et al., 2015). DMH-1 (Sigma D8946) was dissolved in DMSO, and used at final concentration of 20 pM; equal concentrations of DMSO vehicle were used on sibling embryos. Inhibitor treatment experiments were repeated twice with similar effects on the markers analyzed. For Xenopus in-situ hybridization analyses, DIG-labeled antisense RNA probes were generated using linearized full-length cDNA plasmid templates (X. tropicalis satb2 was purchased from ATCC, clone 7720194; HinDIII, T7 for probe; X. laevis satb2 was a gift for Tyler Square and Daniel Medeiros, University of Colorado-Boulder; Xbal, Sp6 for probe). Complete details describing probe synthesis and the in-situ hybridization protocol are available on Xenbase (hftp://wiki.xenbase.orq/xenwiki/index.php/Protocols)."}, "BMP signaling [2]": {"tested_on": "BMP signaling", "assay": "BMP inhibition in mouse whole embryo culture", "assay_type": "in vivo", "method": "For mouse whole embryo cultures, e7.5 embryos were cultured in a 1:1 mixture of Ham's F12 medium and whole embryo culture rat serum (Harlan Labs) containing N-2 Supplement (Invitrogen). Vessels were placed on a roller culture apparatus (BTC Engineering, Cambridge, UK) and maintained for 2 days at 37° C. and gassed with 20% 02 and 5% CO2. BMP signaling was inhibited by treatment with 5 pM DMH-1, with DMSO serving as a vehicle control.\n(§1) Tissue processing, immunofluorescence and microscopy. Tissues were fixed for 1-3 hours in 4% paraformaldehyde (PFA) on ice depending on the size of the tissue. Organoids and transplant engraftments were frozen in OCT. OCT sections were blocked using donkey serum (5% serum in 1×PBS plus 0.5% Triton-X) for 30 min and incubated with primary antibody overnight at 4° C. Slides were then washed 3× with 1×PBS plus 0.5% Triton-X and incubated in secondary antibody with DAPI in blocking buffer for 2 h at room temperature. See Table 2 for a list of antibodies and respective dilutions. Slides were then washed 2× with 1×PBS plus 0.5% Triton-X followed by a final wash in 1×PBS. Coverslips were then mounted using Fluoromount-G® (SouthernBiotech). Images were captured on a Nikon A1 confocal microscope and analyzed using Imaris Imaging Software (Bitplane). For whole-mount staining, tissues were processed similarly as above and then cleared in Murray's solution. Imaging was performed with a Nikon A1 confocal microscope.\n(§2) Quantification of immunofluorescence images. Image quantitation of whole embryos was done by splitting images into separated channels and then measuring pixel area using ImageJ (NIH). Pixel area was determined for each channel, the ratio between channels was determined and the ratio for control treated embryos was represented as 100. Quantitation of in vitro and in vivo grown organoids was done on sections from which images were captured as explained above. The number of CDX2, GATA4 and SATB2 positive nuclei were quantified using the spot function in [marls following calibration with human biopsy samples."}, "human gut tube spheroids [3]": {"tested_on": "human gut tube spheroids", "assay": "HOX/MSX2 gene expression in patterned gut tube spheroids after 3 days (RNA-seq, QPCR)", "assay_type": "cell-based", "method": "(§3) Patterning midgut/hingut spheroids into HIOs and HCOs. Spheroids were collected from 24 well plate and plated in Matrigel (BD). To generate proximal HIOs, spheroids were overlayed with intestinal growth medium (Advanced DMEM/F-12, N2, B27, 15 mM HEPES, 2 mM L-glutamine, penicillin-streptomycin) supplemented with 100 ng/mL EGF (R&D) alone, or 100 ng/mL EGF with 100 ng/ml NOGGIN (R&D). To generate HCOs, spheroids were overlayed with 100 ng/mL EGF plus 100 ng/mL BMP (R&D). For SHH experiments, 1 pM SAG (Tocris), 5 pM SAG or 2.5 pM Cyclopamine (Tocris) were added to control media for initial 3 days after which RNA samples were collected. Media was changed at 3 days with only EGF being maintained in the media for all patterning conditions. Media was then changed twice weekly thereafter. HIOs and HCOs were replated in fresh Matrigel every 14 days.\n(§4) RNA isolation and QPCR. RNA was extracted using Nucleospin® RNA extraction kit (Macharey-Nagel) and reverse transcribed into cDNA using Superscript VILO (Invitrogen) according to manufacturer's protocols. QPCR primers were designed using the qPrimerDepot webased tool (primerdepot.nci.nih.gov). QPCR was performed using Quantitect SYBR® Green PCR kit (Qiagen) and a QuantStudio™ 6 Flex Real-Time PCR System (Applied Biosystems)."}, "human gut tube spheroids [4]": {"tested_on": "human gut tube spheroids", "assay": "Patterning of human gut tube spheroids (pSMAD1/5/8 and SATB2 staining)", "assay_type": "cell-based", "conditions": "spheroids treated for 12 hours; 100 ng/mL", "method": "as §3, with “Media was then changed twice weekly thereafter. HIOs and HCOs were replated in fresh Matrigel every 14 days.” left out\nTissue processing, immunofluorescence and microscopy. […] Images were captured on a Nikon A1 confocal microscope and analyzed using Imaris Imaging Software (Bitplane). […]\nQuantification of immunofluorescence images. Image quantitation of whole embryos was done by splitting images into separated channels and then measuring pixel area using ImageJ (NIH). Pixel area was determined for each channel, the ratio between channels was determined and the ratio for control treated embryos was represented as 100. Quantitation of in vitro and in vivo grown organoids was done on sections from which images were captured as explained above. […]"}, "organoid mesenchyme": {"tested_on": "organoid mesenchyme", "assay": "Patterning markers in isolated organoid mesenchyme cultures (QPCR)", "assay_type": "cell-based, human", "conditions": "mesenchymal cell cultures expanded for 2-3 weeks", "method": "as §4"}, "[5]": {"tested_on": "human intestinal organoids", "assay": "Regional markers in organoids after prolonged in vitro culture (IF, QPCR)", "assay_type": "cell-based", "method": "as §3, §1, §2, §4"}, "transplanted organoids": {"tested_on": "transplanted organoids", "assay": "Transplantation of patterned organoids under the mouse kidney capsule", "assay_type": "in vivo", "method": "as §1"}, "[6]": {"conditions": "28-day old organoids after initial 3 day treatment"}},
  "data": [
    {"molecule": "CC(C)Oc1ccc(-c2cnc3c(-c4ccnc5ccccc45)cnn3c2)cc1", "note": "[DMH-1]", "values": [
      {"measurement": "Satb2 expression in the hindgut and brachial arches", "setting": "BMP signaling [1]", "value": "loss of Satb2 expression"},
      {"measurement": "Satb2 expression in the first brachial arch", "setting": "BMP signaling [2]; DMH-1 treated mouse embryos", "value": "lost"},
      {"measurement": "Satb2 expression in the posterior gut tube", "setting": "BMP signaling [2]; e7.5 mouse embryos, 48 hours of DMH-1 treatment", "value": "loss of Satb2 expression"},
      {"measurement": "pSmad1/5/8 levels", "setting": "BMP signaling [2]; e7.5 mouse embryos, 48 hours of DMH-1 treatment, 5 µM DMH-1 vs DMSO", "value": "significant reduction"},
      {"measurement": "TGFI3 signaling as measured by pSmad2/3 levels", "setting": "BMP signaling [2]; mouse embryos cultured in DMSO or DMH-1", "value": "no impact"}
    ]},
    {"molecule": "CNC1CCC(N(Cc2cccc(-c3ccncc3)c2)C(=O)c2sc3ccccc3c2Cl)CC1", "note": "(stereo not shown) [SAG]", "values": [
      {"measurement": "SAG-mediated activation of MSX2, HOXA13, HOXD13 relative to activation mediated by BMP2", "setting": "human gut tube spheroids [3]; 3 days", "value": "only a fraction"},
      {"measurement": "activation of MSX2, HOXA13 and HOXD13 (QPCR)", "setting": "human gut tube spheroids [3]; SAG added to control media for initial 3 days", "value": "concentration dependent activation"}
    ]},
    {"molecule": "B1", "values": [
      {"measurement": "BMP signaling levels by nuclear pSMAD1/5/8 staining", "setting": "human gut tube spheroids [4]", "value": "abolished this staining"},
      {"measurement": "HOXD3 expression / proximal identity of mesenchyme", "setting": "organoid mesenchyme", "value": "stable proximal identity"},
      {"measurement": "SATB2 expression after re-patterning with NOGGIN", "setting": "[5]; 3-day BMP treated spheroids shifted to NOGGIN-containing media for 3 days", "value": "a subset of organoids lost SATB2 expression"},
      {"measurement": "Levels of ONECUT1 (marker of proximal small intestine)", "setting": "[5]; [6]", "value": "highest"},
      {"measurement": "SATB2 in the epithelium", "setting": "[5]; [6]", "value": "absent"},
      {"measurement": "MUC5B staining (colon-specific goblet cell marker)", "setting": "[5]; 28-day organoids", "value": "absent"},
      {"measurement": "goblet cells by intracellular MUC2 staining", "setting": "[5]; at 28 days", "value": "rare intracellular MUC2 staining"},
      {"measurement": "efficiency of organoid engraftment", "setting": "transplanted organoids; compared with HCOs", "value": "more efficient"},
      {"measurement": "epithelial morphology of transplanted organoids", "setting": "transplanted organoids; under the mouse kidney capsule for 6-10 weeks", "value": "formed well-defined crypts and tall villi"}
    ]}
  ]
}
